According to US20210253725A1 (BIONTECH, published 2021):

T1: CD27 expressed on the cell surface of HT1080_CD27 cells (human, UniProt P26842 20-260)
T1 sequence (looked up): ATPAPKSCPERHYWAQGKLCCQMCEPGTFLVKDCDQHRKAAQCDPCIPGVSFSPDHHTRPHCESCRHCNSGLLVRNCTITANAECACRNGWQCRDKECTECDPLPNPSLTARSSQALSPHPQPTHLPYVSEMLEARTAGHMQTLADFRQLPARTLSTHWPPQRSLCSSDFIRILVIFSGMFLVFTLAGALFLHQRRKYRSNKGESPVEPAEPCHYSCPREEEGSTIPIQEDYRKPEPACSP

T2: CD27 protein (His-tagged, Sino Biological Inc. 10039-H08B1) (human, UniProt P26842 20-192)
T2 construct: bought protein coated on ELISA plates; also called TNFRSF7; not shown: His tag
T2 sequence (looked up): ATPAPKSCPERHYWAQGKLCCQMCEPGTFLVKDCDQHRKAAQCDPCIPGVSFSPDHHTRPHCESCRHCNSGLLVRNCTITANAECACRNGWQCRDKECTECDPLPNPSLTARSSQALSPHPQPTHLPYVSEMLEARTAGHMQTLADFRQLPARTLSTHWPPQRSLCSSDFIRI


Legend:
[1] = target: T1, CD27 expressed on the cell surface of …; experiment: cell-based or functional assay
[2] = target: T1, CD27 expressed on the cell surface of …; experiment: HT1080_CD27 cells, imaging
[3] = target: T2, CD27 protein (His-tagged, Sino …); experiment: ELISA, coated His-tagged CD27
Also: test concentration or dose not given here.

Functional assay Cross-linked by F(ab′)2 fragment IL-8 [1] | Functional assay IL-8 [1] | Cellular binding assay [RFU] [2] | ELISA [abs. corr.] [3] | Binder
1.11 abs. corr. | 0.211 abs. corr. | 395 RFU | 3.1 abs. corr. | P018.S.08.A.F01 (antibody, V domains shown, V regions on human Ig constant parts; also called AB27_140) VH: QSVEESGGRLVTPGTPLTLTCTVSGSDISGYALGWVRQAPGKGLEYIGVIAADGNAYYASWAKGRFTISRTSTTVDLKMTSLTTEDTATYFCARGYSSGWGTYGYFDLWGQGTLVTVSS VL: DIVMTQTPASVSAAVGGTVTIKCQASEDIYSYLAWYQQKPGQPPKLLIYRASTLESGVPSRFKGSGSGTQFTLTISDLESADAATYYCQSYYYSHSTTYSNVFGGGTEVVVK
1.68 abs. corr. | 0.158 abs. corr. | 400 RFU | 3.12 abs. corr. | P018.S.09.A.F05 (antibody, V domains shown, V regions on human Ig constant parts; also called AB27_157) VH: QEQLEESGGDLVKPGASLTLTCTASGFSFSSNYCMCWVRQAPGKGLEWIACICAGASGATYYASWAKGRFTVSKTSSTTVTLQMTSLTGADTATYFCARYDNSGWGDFKLWGPGTLVTVSS VL: DIVMTQTPASVSEPVGGTVTINCQASQNIGTYLAWYQQKPGQRPKLLIYAASYLASGVPSRFKGSGSGTEVALTISDLESADAATYYCQNTYYDSPVVGGAFGGGTEVVVK
1.91 abs. corr. | 0.47 abs. corr. | 249 RFU | 3.11 abs. corr. | P018.S.10.A.B02 (antibody, V domains shown, V regions on human Ig constant parts; also called AB27_167) VH: QSVEESGGRLVTPGGSLTLSCTVNGFSLSSHGVSWVRQAPGKGLEWIGIIYVISGHAYYASWAKGRFTISKTSTTVDLKIASPTTEDTATYFCARGNYGSDSGPNFTRLDLWGQGTLVTVSS VL: AQVLTQTPSPVSATVGGTLTINCQASQSLYNNDYLAWYQQKPGQPPKLLIYLASTLASGVSSRFKGSGSGTQFTLTISGVQSDDAATYYCQGEFSCSSGDCLAFGGGTEVVVK
1.64 abs. corr. | -0.032 abs. corr. | 329 RFU | 3.08 abs. corr. | P018.S.07.A.D05 (antibody, V domains shown, V regions on human Ig constant parts; also called AB27_124) VH: QSLEESGGDLVKPEGSLTLTCTASGFSFSSSYWICWVRQAPGKGLEWIGCMITGRGNTYYATWAKGRFTISKTSSTTVTLQMTSLTAADTATYFCARGPGGADPINLWGPGTLVTVSS VL: DVVMTQTPASVSEPVGGTVTIKCQASQNIYNNLAWYQQKPGQPPKLLIYLASTLASGVPSRFEGSGSGTEFTLTISGVQSDDAATYYCQSTYDGSSYVPNAFGGGTEVVVK
1.28 abs. corr. | 0.1 abs. corr. | 321 RFU | 3.1 abs. corr. | P018.S.05.A.D03 (antibody, V domains shown, V regions on human Ig constant parts; also called AB27_86) VH: QEQLEESGGDLVQPEGSLTLTCTVSGFSFNSNYWICWVRQAPGKGLEWIACIMTGDGSTYYATWAKGRFTISKTSSTTVTLQMTSLTAADTATYFCARGYDGIHGGDNYGHVFNLWGPGTLVTVSS VL: AFELTQTPFSVSAVVGGTVTINCQASENIYSLLAWYQQKPGQPPKLLIYRASTLASGVPSRFKGSGSGTQFTLIISDLESGDAATYYCQSYYINSSNSFGGGTEVVVK
1.92 abs. corr. | 0.208 abs. corr. | 322 RFU | 3.07 abs. corr. | P018.S.05.A.E03 (antibody, V domains shown, V regions on human Ig constant parts; also called AB27_89) VH: QSLEESGGRLVTPGGSLTLTCTVSGIDLSSYAMGWVRQAPGKGLEWIGYITYGGSTYYANWVNGRFTISKTSTMVDLKMTSLTAADTATYFCARLRAPYYYRIYFNLWGPGTLVTVSS VL: ALVMTQTPSSVEAAVGGTVTIKCQASQNIISALAWYQQKPGQPPKLLIYDASNLESGVPSRFKGSGSGTDFTLTISDLESADAATYYCQGAYDTNINDFGGGTEVVVK
1.34 abs. corr. | 0.467 abs. corr. | 338 RFU | 3.12 abs. corr. | P018.S.09.A.G06 (antibody, V domains shown, V regions on human Ig constant parts; also called AB27_159) VH: QSVEESGGRLVTPGTPLTLTCTASGFSLSNYHMSWVRQAPGKGLEWIGIIYAGSDSTWYASWAKGRFTISKTSTTVDLKITSPTTEDTATYFCARQPGGGASDTQLDLWGQGTLVTVSS VL: AAVLTQTASPVSAAVGGTVTINCQSSQNIFDNNQLSWFQHKSGQSPKLLIYRASTLASGVPSRFKGSGSGTQFTLTISDVQSDDAATYYCLGGYSSSSDTVFGGGTEVVVK
1.85 abs. corr. | 0.059 abs. corr. | 314 RFU | 3.08 abs. corr. | P018.S.07.A.A02 (antibody, V domains shown, V regions on human Ig constant parts; also called AB27_113) VH: QSVEESGGRLVTPGTPLTLTCTVSGFSLSSYVMSWVRQAPGKGLEWIGYIDYGGAPYYASWAKGRFTISKTSTTVELKITSPTIEDTATYFCARGGYGGYVLVTVLWGPGTLVTVSS VL: DVVMTQTPASVSEPVGGTVTIKCQASQNIYSSLAWYQQKPGQPPKLLIYQASRLASEVPSRFKGSGSGTEFTLTISDLESADAATYYCQTYYGGSTYGNGFGGGTEVVVE
1.39 abs. corr. | 0.23 abs. corr. | 395 RFU | 3.02 abs. corr. | P018.S.10.A.E02 (antibody, V domains shown, V regions on human Ig constant parts; also called AB27_176) VH: QEQLEESGGDLVKPEGSLTLTCTASGFSFSSSFYMCWVRQAPGKGLEWVACIYAEDSDYTYYASWAKGRFTISKTSSTTVTLQMTSLTAADTATYFCAREILYPTNTDSFDLWGPGTLVTVSS VL: AFELTQTPSSVEAAVGGTVTIKCQASESFSSRLAWYQQKPGQPPKLLIYRASTLASGVPSRFKGSGSGTDFTLTISDLESADAAAYYCQAYVGISSGGYAFGGGTEVVVG

The next lines start with the binder.

Binder | Functional assay Cross-linked by F(ab′)2 fragment IL-8 [1] | Functional assay IL-8 [1] | Cellular binding assay [RFU] [2] | ELISA [abs. corr.] [3]
P018.S.05.A.A06 (antibody, V domains shown, V regions on human Ig constant parts; also called AB27_82) VH: QSLEESGGRLVTPGTPLTLTCTVSGIDLNNNAMSWVRQAPGEGLEWIGIISTAGTTTYASWTKGRFTISKTSTTVDLKITSPTTEDTATYFCARAAYFSYGYINLWGQGTLVTVSS VL: DIVMTQTPASVEAAVGGTVTIKCQASQNIGNALAWYQQKSGQPPKLLIYSASTLASGVPSRFKGSGSGTEFTLTISDLESADATTYFCQSYVYSDGNVFGGGTEVVVK | 1.58 abs. corr. | 0.324 abs. corr. | 374 RFU | 3.11 abs. corr.
P018.S.04.A.E05 (antibody, V domains shown, V regions on human Ig constant parts; also called AB27_76) VH: QSLEESGGDLVKPGASLTLTCTASGFSFSSDYYMCWVRQAPGKGLEWIACISAGSSGSIYYASWAKGRFTISKTSSTTVTLQMTSLTAADTATYFCAREASDSIYYPIFNLWGPGTLVTVSS VL: AAVLTQTPSPVSAAVGGTVSISCQSSKSVYNNNALSWFQQKPGQPPKLLIYGASTLPSRVPSRFKGSGSGTQFTLTISDVQSDDAATYYCIGGYSSSSDTNAFGGGTEVVVK | 1.77 abs. corr. | 0.747 abs. corr. | 319 RFU | 3.11 abs. corr.
P018.S.03.A.D05 (antibody, V domains shown, V regions on human Ig constant parts; also called AB27_50) VH: QSLEESGGRLVTPGTPLTLTCTASGFSLSSYYITWVRQAPGEGLEWIGTISTAGNTYFASWANGRFTISRTSTTVDLKMTSPTTEDTATYFCARDGAGDSNYYRNLWGQGTLVTVSS VL: DIVLTQTPASVEAAVGGTVTIKCQASQSIDRFLAWYQQKPGQPPKLLIYDASDLASGVPSRFSGSGYGTEFTLTISGVQSEDAATYYCQQGYYISDIHNVFGGGTEVVVK | 1.5 abs. corr. | 0.5 abs. corr. | 324 RFU | 3.12 abs. corr.
P018.S.01.A.A06 (antibody, V domains shown, V regions on human Ig constant parts; also called AB27_3) VH: QSVEESGGRLVTPGTPLTLTCTVSGIDLSTYAMSWVRQAPGKGLEWIGIIYGSGYTYYASWAKGRATISKTSSTTVDLKITSPTTEDTATYFCASGYGISSGNFLHFNLWGQGTLVTVSS VL: AYDMTQTPASVEVAVGGTVTIKCQASESIYFNLAWYQQKPGQRPKLLIYRASTLASGVSSRFKGSGSGTQFTLTISGVESADAATYYCQQGYDSSHIDNAFGGGTEVVVT | 1.92 abs. corr. | 0.566 abs. corr. | 287 RFU | 3.09 abs. corr.
P018.S.01.A.E02 (antibody, V domains shown, V regions on human Ig constant parts; also called AB27_14) VH: QSVEESGGRLVTPGTPLTLTCTASGFSLSNYYMSWVRQAPGKGLEWIGIISTYGDTYYATWAKGRFTISKTSTTVDLKITSPTTEDTATYFCARGSSDTYYTYFNLWGPGTLVTVSS VL: DIVMTQTPASVEAAVGGTVTIKCQASQKIYNNLAWYQQKPGQPPKLLIYSASTLASGVPSRFKGSGSGTEFTLTISDLESADAATYYCQSYGVSANTISYGLPFGGGTEVVVK | 1.17 abs. corr. | 0.276 abs. corr. | 360 RFU | 3.13 abs. corr.
P018.S.05.A.B06 (antibody, V domains shown, V regions on human Ig constant parts; also called AB27_84) VH: QSVEESGGRLVTPGTPLTLTCTVSGFSLNTYVMSWVRQAPGKGLEWIGYIDYGGAPYYASWAKGRFTISKTSTTVELKITSPTIEDTATYFCARGGYGGYVLVTVLWGPGTLVTVSS VL: DVVMTQTPASVSEPVGGTVTIKCQASQNIYSSLAWYQQKPGQPPKLLIYQASTLASEVPSRFKGSGSGTEFTLTINDLESADAATYYCQTYYGGSTYGNGFGGGTEVVVE | 1.7 abs. corr. | 0.22 abs. corr. | 309 RFU | 3.1 abs. corr.
P018.S.03.A.D04 (antibody, V domains shown, V regions on human Ig constant parts; also called AB27_49) VH: QEHLEESGGGLVQPGGTLTLTCKASGIDFSSSYYMCWVRQAPGKGLERLACTYNRDGSTYYASWAKGRFTISKTSSTTVTLQMTSLTVADTATYFCARDDGYPGSGYVLNLWGPGTLVTVSS VL: DVVMTQTPASVEAAVGGTVTIRCQASQSVSNYFSWYQQKPGQPPKLLIYGASNLESGVPSRFKGSGSGTEFTLTISGVQSDDAATYYCQGGYYSSNTDNNSFGGGTEVVVK | 1.23 abs. corr. | 0.513 abs. corr. | 270 RFU | 3.1 abs. corr.
